Data reported in patent US20190077860A1 (EISAI R AND D MANAGEMENT, published 2019).

Columns and labels:
[1] = target: T1, human EphA4 extracellular region-SEAP-His protein (human, UniProt P54764 20-547); test: SPR (Biacore T200), human EphA4 extracellular region-SEAP-His captured on an anti-His antibody CM5 chip, antibody as analyte at 0.6-50 nM, 1:1 fit (run alongside F(ab')2)
T1 construct: also called hEphA4-SEAP-His
Method: Next, the binding affinity of antibody A-Fab and antibody A-F(ab′)₂ for mouse and human EphA4 was determined by surface plasmon resonance (SPR) using Biacore T200 (GE Healthcare). Antibody A obtained in Example 1 was used as a control for the comparison of each fragment. First, an anti-His tag antibody was immobilized on sensor chip CM5. The immobilization of the anti-His tag antibody on sensor chip CM5 was performed by the amine coupling method using N-hydroxysuccinimide (NHS) and N-ethyl-N′-(3-dimethylaminopropyl)carbodiimide hydrochloride (EDC). Ethanolamine was used in blocking (the sensor chip and the reagents for immobilization were all manufactured by GE Healthcare). The antibody was diluted with a buffer solution for immobilization (10 mM sodium acetate, pH 4.5) into 3 μg/mL and immobilized on the sensor chip according to the protocol attached to Biacore T200.
Mouse or human EphA4 extracellular region-SEAP-His protein was diluted with a running buffer solution HBS-EP (GE Healthcare, BR-1001-88), injected onto a flow cell for 120 seconds, and captured (amount of the protein captured: approximately 10 to 20 RU). Subsequently, antibody A (50, 16.7, 5.6, 1.9, 0.6, and 0 nM), antibody A-Fab (500, 166.7, 55.6, 18.5, 6.2, and 0 nM), or antibody A-F(ab′)₂ (50, 16.7, 5.6, 1.9, 0.6, and 0 nM) serially diluted using HBS-EP was added to the sensor chip for 120 seconds. Binding reaction curves were sequentially observed at the time of the addition (association phase, for 120 sec) and after the completion of the addition (dissociation phase, for 900 sec). After the completion of each observation, the sensor chip was regenerated by the addition of 3 M MgCl₂ (Wako Pure Chemical Industries) (for 30 sec). The obtained binding reaction curves were subjected to fitting analysis with 1:1 binding models using software BIA evaluation attached to the system to calculate the binding affinity (KD=kd/ka) for mouse and human EphA4.

[2] = target: mouse EphA4 extracellular region-SEAP-His protein (mouse); test: competition ELISA, competitor biotinylated mouse Ephrin B2-Fc; first value printed
Method: Antibody A-Fab and antibody A-F(ab′)₂ obtained in Example 5 were evaluated for their inhibitory activity against the binding between EphA4 and its ligand according to the following steps. Each well of a 96-well plate (Nunc) was coated with an anti-alkaline phosphatase antibody (Thermo Fisher Scientific). After incubation overnight at 4° C., each well was blocked with 1% BlockAce (DS Pharma Biomedical) at room temperature for 1 hour. After washing with 0.05% Tween 20/PBS (Thermo Fisher Scientific) three times, the mouse EphA4 extracellular region-SEAP-His protein obtained by the method of Example 1 was added (final concentration: 10 nM) to each well and incubated at room temperature for 1 hour. After washing three times, a ligand and serially diluted antibody A (0, 0.003, 0.01, 0.03, 0.1, 0.3, 1, 3, 10, 30, 100, 300, 1000, and 3000 nM), antibody A-Fab (0, 0.003, 0.01, 0.03, 0.1, 0.3, 1, 3, 10, 30, 100, 300, 1000, and 3000 nM), antibody A-F(ab′)₂ (0, 0.003, 0.01, 0.03, 0.1, 0.3, 1, 3, 10, 30, 100, 300, 1000, and 3000 nM), or the EphA4 inhibitor KYL peptide ([…], 0, 0.0003, 0.001, 0.003, 0.01, 0.03, 0.1, 0.3, 1, 3, 10, 30, 100, 300, 1000, and 3000 μM, its synthesis was outsourced to Toray Research Center) were added to each well. […] The absorbance at 450 nm was read using a microplate reader (Molecular Devices or PerkinElmer). […]

T1 sequence (P54764 20-547): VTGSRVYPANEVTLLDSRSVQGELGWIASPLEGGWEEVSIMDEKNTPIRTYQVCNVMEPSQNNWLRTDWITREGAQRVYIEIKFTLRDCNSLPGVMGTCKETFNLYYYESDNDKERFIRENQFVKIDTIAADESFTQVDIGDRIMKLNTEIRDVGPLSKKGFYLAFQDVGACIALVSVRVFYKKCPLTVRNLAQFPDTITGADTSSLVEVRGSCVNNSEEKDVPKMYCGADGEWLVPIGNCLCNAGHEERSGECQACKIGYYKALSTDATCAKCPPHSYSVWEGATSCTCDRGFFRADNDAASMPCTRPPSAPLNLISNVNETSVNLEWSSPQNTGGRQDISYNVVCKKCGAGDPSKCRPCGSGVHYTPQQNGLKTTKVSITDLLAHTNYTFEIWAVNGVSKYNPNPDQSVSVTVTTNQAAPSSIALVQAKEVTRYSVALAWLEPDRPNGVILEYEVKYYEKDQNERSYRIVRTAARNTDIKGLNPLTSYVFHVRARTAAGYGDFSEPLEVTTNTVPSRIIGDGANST
Sequence of mouse EphA4 extracellular region-SEAP-His protein (mouse) (chain, as listed by the source limits assumed): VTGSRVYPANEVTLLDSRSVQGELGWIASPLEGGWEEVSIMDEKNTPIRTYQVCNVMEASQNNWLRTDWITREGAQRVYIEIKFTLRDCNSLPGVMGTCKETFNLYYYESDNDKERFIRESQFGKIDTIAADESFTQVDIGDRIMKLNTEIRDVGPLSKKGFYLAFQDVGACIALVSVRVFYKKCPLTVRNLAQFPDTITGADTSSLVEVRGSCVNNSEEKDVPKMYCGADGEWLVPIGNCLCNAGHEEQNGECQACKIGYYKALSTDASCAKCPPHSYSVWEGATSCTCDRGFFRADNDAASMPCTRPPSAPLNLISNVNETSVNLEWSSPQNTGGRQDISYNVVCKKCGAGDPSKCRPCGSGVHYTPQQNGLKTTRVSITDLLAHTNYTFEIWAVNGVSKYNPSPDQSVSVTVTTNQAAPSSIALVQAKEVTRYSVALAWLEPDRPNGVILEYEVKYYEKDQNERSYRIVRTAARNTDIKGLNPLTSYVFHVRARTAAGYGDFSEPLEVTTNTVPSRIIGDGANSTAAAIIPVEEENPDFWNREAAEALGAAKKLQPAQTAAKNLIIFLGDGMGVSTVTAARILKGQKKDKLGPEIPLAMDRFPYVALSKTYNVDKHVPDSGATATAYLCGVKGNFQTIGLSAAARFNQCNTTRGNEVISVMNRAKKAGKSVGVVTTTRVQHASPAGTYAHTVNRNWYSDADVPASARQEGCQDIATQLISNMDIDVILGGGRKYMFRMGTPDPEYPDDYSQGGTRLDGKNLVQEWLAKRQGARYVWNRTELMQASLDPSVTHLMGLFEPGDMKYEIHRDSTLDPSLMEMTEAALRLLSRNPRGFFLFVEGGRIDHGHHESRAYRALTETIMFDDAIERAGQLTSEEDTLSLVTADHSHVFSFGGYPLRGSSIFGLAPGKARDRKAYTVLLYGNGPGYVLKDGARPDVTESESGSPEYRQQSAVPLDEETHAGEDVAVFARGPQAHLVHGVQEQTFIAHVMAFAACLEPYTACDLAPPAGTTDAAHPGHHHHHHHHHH

B1: antibody A (antibody, mouse IgG1, kappa, V domains shown)
VH: QIQLVQSGPELKKPGETVKISCKASGYTFTDYSMHWVKQAPGKGLKWMGWINTETGEPTYADDFKGRFAFSLETSASTAYLQINNLKNEDTATYFCARIPLYYYGSRYWYFDVWGAGTTVTVSS
VL: DIQMTQSPASLSVSVGETVTITCRASENIYRNLAWYQQKQGKSPQLLVYAATNLADGVPSRFSGSGSGTQYSLKINSLQSEDFGSYYCQHFWGTPWTFGGGTKLEIKR
notes: mouse IgG1 heavy chain, kappa light chain; purified from hybridoma supernatant; also called anti-EphA4 monoclonal antibody; antibody A-IgG
B1 was tested, and the Kd [1] was 0.0399 nM, the koff [1] was 0.000236 s⁻¹ and the kon [1] was 5.91e+06 M⁻¹ s⁻¹. It also gave an IC50 [2] of 2.6 nM.
